Assay [1] concerns the target human LGI1–FLAG (leucine-rich, glioma inactivated 1 protein) (human) (UniProt O95970). Put plainly: co-IP; HEK293T co-transfected; lysis 24 h after transfection in 20 mM Tris-HCl pH 8.0, 1 mM EDTA, 0.5% Fos-Choline-14; PSD-95-FLAG or LGI1-FLAG precipitated with FLAG-M2 agarose, washed with 100 mM NaCl, 1% Triton X-100, eluted with FLAG peptide; western blot, band intensities; n = 3.

Another assay deals with rat PSD-93-GFP (rat) (UniProt Q63622). Kind of assay: co-IP; HEK293T co-transfected; GFP-tagged MAGUK proteins precipitated with anti-GFP antibody; western blot.
Sequence of rat PSD-93-GFP (rat) (Q63622 whole entry): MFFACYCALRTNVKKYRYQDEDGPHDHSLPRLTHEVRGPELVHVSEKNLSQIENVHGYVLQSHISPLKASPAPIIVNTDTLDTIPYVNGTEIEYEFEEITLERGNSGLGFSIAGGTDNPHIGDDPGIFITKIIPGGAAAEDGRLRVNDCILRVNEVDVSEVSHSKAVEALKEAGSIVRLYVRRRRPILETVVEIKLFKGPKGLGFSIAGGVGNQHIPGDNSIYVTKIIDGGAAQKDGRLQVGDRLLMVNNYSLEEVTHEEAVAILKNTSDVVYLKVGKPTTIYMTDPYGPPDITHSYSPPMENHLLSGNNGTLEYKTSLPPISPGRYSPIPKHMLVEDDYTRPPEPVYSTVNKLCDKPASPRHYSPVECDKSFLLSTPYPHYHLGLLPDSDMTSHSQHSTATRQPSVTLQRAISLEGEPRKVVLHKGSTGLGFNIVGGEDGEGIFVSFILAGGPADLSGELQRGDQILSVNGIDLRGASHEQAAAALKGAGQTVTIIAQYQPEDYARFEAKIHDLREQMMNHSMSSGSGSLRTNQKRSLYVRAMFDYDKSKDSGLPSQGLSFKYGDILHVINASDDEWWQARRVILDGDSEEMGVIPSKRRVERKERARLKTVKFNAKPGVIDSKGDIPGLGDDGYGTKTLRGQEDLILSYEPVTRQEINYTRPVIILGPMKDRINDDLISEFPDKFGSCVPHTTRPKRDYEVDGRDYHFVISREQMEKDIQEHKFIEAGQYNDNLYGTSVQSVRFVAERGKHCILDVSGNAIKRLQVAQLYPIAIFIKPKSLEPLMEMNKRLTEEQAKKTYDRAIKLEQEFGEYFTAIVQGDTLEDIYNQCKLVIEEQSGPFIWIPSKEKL
For a further assay, the target named is rat SAP102-GFP (rat) (UniProt Q62936). Described as above.
Sequence of rat SAP102-GFP (rat) (Q62936 whole entry): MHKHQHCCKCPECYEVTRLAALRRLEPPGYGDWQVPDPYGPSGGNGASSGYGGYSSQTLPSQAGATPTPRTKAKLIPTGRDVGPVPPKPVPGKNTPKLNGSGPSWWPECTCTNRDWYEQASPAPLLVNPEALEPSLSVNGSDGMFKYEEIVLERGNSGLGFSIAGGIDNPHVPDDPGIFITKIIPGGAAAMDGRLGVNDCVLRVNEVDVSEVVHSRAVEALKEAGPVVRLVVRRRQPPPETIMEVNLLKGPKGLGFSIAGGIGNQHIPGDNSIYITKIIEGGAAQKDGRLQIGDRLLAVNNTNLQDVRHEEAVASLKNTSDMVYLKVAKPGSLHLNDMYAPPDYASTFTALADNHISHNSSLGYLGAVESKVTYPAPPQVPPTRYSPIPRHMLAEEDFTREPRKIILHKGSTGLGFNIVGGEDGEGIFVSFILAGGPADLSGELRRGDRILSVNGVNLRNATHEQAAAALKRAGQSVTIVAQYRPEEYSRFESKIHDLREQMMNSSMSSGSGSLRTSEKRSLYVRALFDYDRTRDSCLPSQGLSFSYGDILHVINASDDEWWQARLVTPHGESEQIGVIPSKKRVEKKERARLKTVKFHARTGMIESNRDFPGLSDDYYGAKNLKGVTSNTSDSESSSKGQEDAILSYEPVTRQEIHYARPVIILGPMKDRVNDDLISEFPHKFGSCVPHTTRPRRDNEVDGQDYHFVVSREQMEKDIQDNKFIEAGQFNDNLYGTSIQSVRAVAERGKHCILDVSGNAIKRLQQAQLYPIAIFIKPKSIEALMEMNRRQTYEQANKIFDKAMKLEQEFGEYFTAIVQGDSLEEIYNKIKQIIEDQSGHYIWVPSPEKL
For another assay, the target named is rat PSD-95-FLAG (rat) (UniProt P31016). Put plainly: co-IP; HEK293T co-transfected; lysis 24 h after transfection in 20 mM Tris-HCl pH 8.0, 1 mM EDTA, 0.5% Fos-Choline-14; PSD-95-FLAG or LGI1-FLAG precipitated with FLAG-M2 agarose, washed with 100 mM NaCl, 1% Triton X-100, eluted with FLAG peptide; western blot, band intensities; n = 3.
Sequence of rat PSD-95-FLAG (rat) (P31016 whole entry): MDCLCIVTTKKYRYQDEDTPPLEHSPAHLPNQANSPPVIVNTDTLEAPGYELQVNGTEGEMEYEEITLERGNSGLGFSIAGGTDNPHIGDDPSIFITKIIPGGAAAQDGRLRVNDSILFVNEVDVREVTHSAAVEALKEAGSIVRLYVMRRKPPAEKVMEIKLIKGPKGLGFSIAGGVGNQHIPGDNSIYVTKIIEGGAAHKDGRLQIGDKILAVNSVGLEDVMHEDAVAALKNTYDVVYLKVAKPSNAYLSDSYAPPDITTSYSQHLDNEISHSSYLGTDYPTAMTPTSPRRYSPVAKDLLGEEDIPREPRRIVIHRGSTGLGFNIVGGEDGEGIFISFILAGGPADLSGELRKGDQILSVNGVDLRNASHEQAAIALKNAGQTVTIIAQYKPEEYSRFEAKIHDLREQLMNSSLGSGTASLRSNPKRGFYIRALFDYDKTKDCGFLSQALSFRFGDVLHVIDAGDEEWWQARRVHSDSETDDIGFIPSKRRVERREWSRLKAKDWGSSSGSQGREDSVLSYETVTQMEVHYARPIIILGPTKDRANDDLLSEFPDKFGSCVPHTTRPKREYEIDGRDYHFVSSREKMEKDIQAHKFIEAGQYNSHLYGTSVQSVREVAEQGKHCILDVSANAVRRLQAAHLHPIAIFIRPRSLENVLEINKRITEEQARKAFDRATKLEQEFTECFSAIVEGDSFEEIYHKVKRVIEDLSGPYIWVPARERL

Sequence of human LGI1–FLAG (leucine-rich, glioma inactivated 1 protein) (human) (O95970 35-557): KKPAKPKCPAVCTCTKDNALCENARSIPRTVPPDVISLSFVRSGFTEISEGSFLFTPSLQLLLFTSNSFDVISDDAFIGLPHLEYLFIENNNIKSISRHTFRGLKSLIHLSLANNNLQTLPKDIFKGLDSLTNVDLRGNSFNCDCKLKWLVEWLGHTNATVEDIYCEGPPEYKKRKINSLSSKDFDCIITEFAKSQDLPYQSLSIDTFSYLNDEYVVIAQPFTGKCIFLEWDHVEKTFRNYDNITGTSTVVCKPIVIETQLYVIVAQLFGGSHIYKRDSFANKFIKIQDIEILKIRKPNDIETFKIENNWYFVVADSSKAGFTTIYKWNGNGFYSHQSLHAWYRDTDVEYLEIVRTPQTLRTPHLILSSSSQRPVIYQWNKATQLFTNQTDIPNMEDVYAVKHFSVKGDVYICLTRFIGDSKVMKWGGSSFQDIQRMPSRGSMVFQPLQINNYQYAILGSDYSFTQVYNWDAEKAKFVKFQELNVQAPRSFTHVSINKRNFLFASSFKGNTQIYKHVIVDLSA

For the substance “ADAM22 C401Y variant (from UniProt Q9P0K1 26-906) (receptor)”, in assay [1], the co-immunoprecipitated amount, percent of wild type stood at 40%.
As to “human ADAM22 S905F variant (from UniProt Q9P0K1-1 26-906) (receptor)”, the co-immunoprecipitated amount, percent of wild type was 20% with rat PSD-93-GFP (rat), 20% in the assay with rat SAP102-GFP (rat), 75% in assay [1] and 20% with rat PSD-95-FLAG (rat).

Source of the values: publication PMC10636567.
